From the supplement of paper PMC9170038

Test system: K4 kissing-loop RNA reporter
Test: apparent KD of K4 kissing-loop reporter; higher = weaker reporter binding
Details: Eterna round: R107
Procedure: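 RNA-MaP round R107: designed RNA switches with theophylline, tryptophan, arginine or FMN aptamers are transcribed on-chip within common flanks. They are titrated with a labelled K4 kissing-loop RNA reporter in RNA-MaP buffer (100 mM Tris pH 7.5, 80 mM KCl, 4 mM MgCl2), without ligand or with the indicated ligand. Median apparent KD per design.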

[1] = input ligand: theophylline 20 uM
[2] = input ligand: tryptophan 2.4 mM
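Also: bound reporter read as fluorescence of individual clusters on recovered sequencing chips by microscopy, with normalized cluster intensities fitted with a binding model.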

Sequence	apparent KD of K4 kissing-loop reporter (input ligand: FMN 200 uM) [nM]	apparent KD of K4 kissing-loop reporter (input ligand: arginine 13.2 mM) [nM]	apparent KD of K4 kissing-loop reporter (input ligand: none) [nM]	apparent KD of K4 kissing-loop reporter [1] [nM]	apparent KD of K4 kissing-loop reporter [2] [nM]
CACCGGACGAAAGAUACCAGUUACUAUAUUAGGGUGCCUUGGCUAGUGAUGUUAGAGAGUAACCCUUGGCAGCUUUGGUACUUAU [theeternabot_exclusion_KL_Theo_B_21]	380	367	390	319	335
GCGUGCAAGUCAUGAUGCCCUAUCAGGACUAAGGAUAUAGCGUGACCUAGAAGGUAGCUAGUGAUGUUGGCUGACAUGCUACUGC [theeternabot_exclusion_KL_FMN_A_49]	482	227	367	376	376
GGGUUUGCCGGAAGGAGCGCACUAUGGAGUGAUGUUCCAUGACCGCACAGCUUGCGGUCAGUGCAGGUAGGUCGCCGGUAACGUU [Enatbeve]	237	181	180	201	194
UAGAUGUUGUAAGAUAUUGAUAGUCGGGAAGGAGCGCUCACAAUAGCAGGUAGGUCGCCCGACAGUGUUAGGAGUGAUGUUCCUU [7.)]	92.9	119	97.9	121	83.5
UAUGUACGCGGGUAACGGUACAUCGAGGAAGGAGCGUGCGCAGGCACAGGUAGGUCGCCUCAGCGCACGAGUGAUGUUCGUGGGC [Rere]	221	243	271	298	280
AAGUCAUAGGCAGGAUAUGCAUUGUAGUAAGGCAAUAUAUACGUAUAGAGUGAUGUUUUGUACCAGGCAGAAGGGCUACAUCAGU [FMN B Excl V11 (+G)]	826	367	645	868	492
GGUAGCAUGGCGGCCGCCACUUCGAAUAAGUGAUGUUUAUUUGACUGAGCACCCUAUGCCAUGUGAAGGACCGGGCCAUGCUACC	147	138	157	208	200
AGUUCUUGCCGAAGGAGCGAGGCAGAGUGAUGUUCUGCAGGAGGUCGAAAGACCUCCCUGCCUCAGGUAGGUCGCGGCAUGAACA [Omei KL Arginine B Exc A v1]	587	590	1250	566	478
AGGAUGUAGUGAUGUUAUAUAAGAAGUAGACGAGGACCGGUACGGCCGCCACUCGAAACGGCUACUAGCGCGUUGCGAGGUGUGC [ExTryptoA.Cg]	576	435	476	468	326
GGAGAGGUCUUGUUUGGAUGUGUUUAAUGGCGAGGACCGGUACGGCCGCCACUCGGGUGAUGUUAGUGAUGUUGAUGUUGUGAUG ['oo'mullin]	137	131	125	219	116
UGAUACCAGACUGAUACCAGCCACAGAGUCAAAGACUCUGAUAAAGGAACCAGUGAUGUUGGCCCUUGGCAGCAGUCUGGUAUCU [TheoBX 24 #SwitchBubble #StaticStem]	131	113	118	107	156
AUUUGUUUAUGUGAUACCAGACUUUGCAGUGAUGUUGCAUUUAUUUUAGAAUAUAAUUUAGUCCCUUGGCAGCACUAUGUAUUUA [JR_SSTheophyB_Sub008]	67.1	110	73.8	109	63.4
UCCUAGGCUCGAAAGAGCCUAGGUAAGACUCAGGAUAUCUGGAAACAGAGAAGGGAGCUACUAGUGAUGUUAGGAAUUCCCAUUU	116	94.7	89	76.2	85.1
GGCCGGUUGAAAGGCCGGCCAGAAACCGAAGGAGCGCGAAGAAACGCAGGUAGGUCGCGGAAAACAUGACCAGUGAUGUUGGUCG	152	173	154	152	144
GCGGGCGGCUGAAGGAGCGGGCGGGCCCGAGUGAUGUUCGGGUGGGCCGUGAGGCCCGGAGCCCAGGUAGGUCGCGGUUCCGUCC [#2 Same State - Arginine B Attempt #19 (HarryS)]	162	113	126	170	147
CUUGAUGGAAACAUCGAGUAGAUUACUGAUACCAGUAUCGAUAGAUACCCUUGGCAGCAGAAUCAGUGAUCACGAGUGAUGUUCG [Ex Theophylline A K4 8]	525	441	529	451	484
AAGCCAGAGAUUGCUGCGGGUUCCAGAGAUACCAGCCGUAUUGAAGGCCCUUGGCAGCUCGAGUGAUGUUCGAGCCGUCUCCGGC [Onte]	111	110	114	116	113
GUCCACACUGCAGGAUAUGGAGGUAUAGCGAGGGAGUUUGGAAGCACACCUCUGGCAGUGAUGUUGCCAGAAGGGCGGUGCGGCG [Rauserin]	82.4	89.5	99.2	64.3	83.9
